{
  "source": "patent US20240287489A1",
  "about": "“CHITINOLYTIC ENZYME-BASED PLANT PROTECTION AGENTS” (GLOBACHEM NV, priority 2021, published 2024)",
  "key": {"[1]": {"assay": "Temperature, pH and NaCl optima and temperature stability of recombinant chitinases (reducing end assay)", "type": "biochemical", "conditions": "for Optimum pH: 30° C., pH 4-11; for Optimum salinity: 0-20% w/v NaCl", "method": "All enzymes were first characterized regarding their temperature and pH-optima as well as the optimum NaCl content as the enzymes were isolated from a sea-water microorganism. As the future intention is to integrate these novel enzymes in a degradation processes of natural chitin, all parameters were determined using chitin powder as a substrate instead of pre-treated analogs such as colloidal chitin, glycol chitin or artificial fluorogenic substrates. […] (FIG. 5A). Next, enzyme temperature stability was investigated (FIG. 51). […] Enzyme C1 retained a 50% residual activity after 240 min incubation at 60° C., while the activity of the other chitinases dropped below 50% after 15 min and remained on that level.\nGiven the marine origin of the P. orarium strain, the effect of salt was also evaluated, testing the addition of NaCl to the standard buffer. […] Increasing NaCl amounts up to 20% (w/v) reduced enzyme activity substantially to 10% for C2, 4 and 5, with C1 and C3 showing highest tolerance (65% activity).\nFor the determination of enzymatic activity of recombinant chitinases, a reducing end assay was carried out [Svein et al., Carbohydr Polym, 2004. 56(1): p. 35-39.]. Fractions containing chitinases were incubated with 5% (w/v) chitin powder extracted from shrimp shells (˜400.000 g/mol; Carl Roth) in MAT buffer for 2 h in an overhead shaker at ambient temperature (standard conditions). Samples were centrifuged at 13000×g for 2 min and 40 μl of the supernatant was mixed with 40 μl 0.5 M NaOH and 40 μL of a reagent containing 1.5 mg/ml 3-Methyl-2-benzothiazolinonhydrazon and 0.75 mg/ml Dithiothreitol. Samples were incubated at 80° C. for 15 min and then thoroughly mixed with 80 μl of 0.5% (w/v) FeNH4(SO4)2)×12H2O, 0.5% (w/v) sulfamic acid and 0.25 M HCl. After cooling down to room temperature, 100 μl of the samples were measured at 620 nm. A calibration curve of N-acetyl-glucosamine was constructed freshly for each measuring cycle. One unit [U] was defined as the amount of enzyme required to release 1 μmol of reducing sugars per hour.\n(§1) Enzyme samples were incubated at different temperature (10-60° C., 10° C. increment) and pH (4-11, increment 1) using different buffer systems (Acetate, Tris-HCl, MES, total molar concentration 100 mM), as well as NaCl content (0, 1. 2.5, 5, 10 and 20% w/v) to determine optimum reaction conditions. All experiments were carried out at 1.0 ml scale using 2 μM of the respective enzymes and a 5% (wv) suspension of chitin powder extracted from shrimp shells (˜400.000 g/mol; Carl, Roth) in 100 mM MAT buffer. For the determination of the substrate specificity, chitin powder (5% w/v), glycol chitin (10% v/v), colloidal chitin (5% w/v), chitosan [DA 15-25%, medium molecular weight, Sigma-Aldrich] (5% w/v) and microcrystalline cellulose powder (Sigma Aldrich) (5% w/v) were investigated, respectively. The effect of several potential co-factors on activity was elucidated at a concentration of 1 mM. Additionally, the effect of detergents [SDS 0.5% (w/v), Tween-20 and Triton X-100 both at 0.5% (v/v)] and chemicals (Imidazole 100 mM, EDTA 1 mM) on enzymatic activity was assessed. Samples were incubated in a thermomixer for 16 h at 900 rpm. After incubation, samples were analyzed using the enzyme assay. Thermostability was assessed after incubation of recombinant chitinases at 60° C. for different durations followed by the quantification of residual enzyme activity under standard assay conditions."}, "[2]": {"assay": "Substrate specificity, reducing end assay", "type": "biochemical", "conditions": "in % activity of chitin powder; 16 h at optimum conditions, 50 mg/ml substrate", "method": "(§2) Different chitinous substrates were tested to assess the substrate affinity of the novel chitinases relative to untreated chitin powder. […] As expected, the conversion of colloidal chitin is more efficient compared to chitin powder as it provides an overall smaller particle size and thereby larger surface area. Chitosan powder (degree of acetylation: 15%) was also degraded efficiently and high chitosanase activity was observed especially for C1, C3, C4 and C5. Merely basal activity was detected when cellulose was utilized as a substrate for all enzymes.\nas §1"}, "[3]": {"assay": "Substrate specificity, reducing end assay", "type": "biochemical", "conditions": "in % activity of chitin powder; 16 h at optimum conditions, 50 mg/ml substrate", "method": "as §2\nThe preparation of colloidal chitin was similar to the method described by Murthy and Bleakley with some minor differences [Murthy et al., Microbiol., 2012. 10(2): p. 1-5.]. Chitin powder (Carl Roth) was dissolved in concentrated hydrochloric acid (HCl) (5 g in 100 mL) and stirred at 4° C. for 24 h, after which the mixture was centrifuged at 4000×g for 15 min at 4° C. The precipitate was washed to neutral pH with distilled water and stored at 4° C.\nas §1", "remark": "listed apart in the source"}, "[4]": {"assay": "TLC analysis of cleavage patterns with chitin standard molecules", "type": "biochemical", "conditions": "for hydrolysis products from chitin pentamers / hydrolysis products from chitin trimers: 4 mg/ml, 16 h, TLC; for cleavage mechanism (exo-/endo-chitinase activity): TLC of products from oligomeric or polymeric chitin substrates", "method": "monomeric oligomers. Chitosan was degraded to a crude mixture of multiple oligomers ranging from dimers to pentamers and even larger undefined yet water-soluble fragments that migrated slightly from the starting point. Further analysis of the cleavage patterns was carried out using chitin standard molecules of DP2-DP6 and incubating them at 4 mg/ml concentration with the individual enzymes (FIG. 9).\nDimeric chitin molecules were not converted by any of the enzymes. […] All chitinases degraded chitin tetramers to dimers as a single product. […] Chitin hexamers were degraded to dimers and trimers. Although all chitinases are different in their structure and present different glycosyl hydrolase domains hydrolysis products in general were similar.\nC2, 4 and 5 yielded similar product patterns when incubated with insoluble substrates. […] The presented data underline that the novel chitinases are all suited for the degradation of powdery chitin without any further harsh chemical pre-treatment.\nHydrolysis products were analyzed using 10×10 cm TLC Silica gel 60 F254 plates (Merck, Darmstadt, Germany) and a mixture of butanol:methanol:25% ammonia:H2O (5:4:2:1) as mobile phase. A total sample volume of 0.5 μl was applied in 0.25 μl spots. Chitin standard sugars (Megazyme, Chicago, USA) (5 mg/ml) were applied to the plate (0.5 μL in 0.25 μL spots) as size standard for the determination of the DP. After separation, the plate was air-dried and the developing solution (200 ml Acetone, 30 ml phosphoric acid (85%), 4 ml aniline, 4 g diphenylamine) was sprayed on the plate followed by spot visualization at 300° C. using a heat gun."}, "Septoria tritici": {"system": "Septoria tritici", "assay": "Minimum inhibitory concentration (MIC) test on fungal pathogens", "type": "cell-based", "set-up": "key: xx = no growth/strong inhibition; x = small inhibition", "conditions": "start concentration 100 μg/ml"}},
  "data": [
    {"molecule": "Chitinase 1: chitinolytic enzyme from P. orarium, SEQ ID NO: 1, recombinant with PelB signal peptide and 6×His tag; run 19 = 2 μM alone (protein, listed as Photobacterium orarium, PelB signal peptide; 6xHis tag; Chitinase 1, run 19 = 2 μM alone) MAAPGTPQIAWMETDYAIVEVDQAASAYKSLITVKPAAEVPVAWQRYSGETADLWKVKLNGNVVFEQSIAPASSGAGSTTLSVAQGGQYAMTVELCSGTGAAQACTSSAATNIVVADTDGSHLDPLPMNVDANNGNYTTPANTVVGAYFVEWGVYGRKFSVDNIPAQNLTHILYGFIPICGPNESLGEIENGNSLAALNRACQGTPDYEVVIHDPWAAVQMPQPQSGHTHSTPYKGTYGQMMALKQRYPDLKIVPSVGGWTLSDPFYSFTDKAKRDIFVASVKKFLKTWKFFDGVDIDWEFPGGKGANANLGDPVNDGPAYVALMRELRVMLDELEAETGRQYELTSAIGVGYDKIDVVNYADAVQYMDYIFAMTYDFFGGWNNVPGHQTALFCGSHMSADVCNGTGVDENGVPRQGPAYTAAHGIDRLLAQGVPANKLVLGTAMYARGWTGVTEASMTDPTNPMTGTGNGMVPGSWEPGVIDYKDVVTDYINNAAVTKGYDAQAEAPWAYNPSNGNLITYDDRRSVLAKGQYVRNLGLAGLFAWEIDADNGDILNAMQDSLAGGGGNYAPVAKAGADQVVNGAASVTLDGSASSDRDGQIVSYQWTQTSGPALTLTGSDTATATVAVPEVTADTQYAFTLTVTDNAGDTATDSVTVTAKAPGSNTAPVVAVSGPATASAGDTVVLDASQSSDADGDTLTFTWTVPAGVNATVNGATVSFVADSYTVDTPLNFTVAVSDGTDSVTESVTVTVLKDGGSTGCTNAWATGGVYNSGDIVTHSGKSWKAKWWTTGEEPGTTGEWGVWEDLGAANCQIE", "values": [
      {"measurement": "residual activity", "setting": "[1]; after 240 min incubation at 60° C.", "value": 50, "unit": "%"},
      {"measurement": "Optimum pH", "setting": "[1]; chitin powder", "value": 8},
      {"measurement": "Optimum salinity", "setting": "[1]; chitin powder, pH 8, 30° C.", "value": 1, "unit": "% NaCl"},
      {"measurement": "Optimum temperature", "setting": "[1]; chitin powder, pH 8, range 10-60° C.", "value": 30, "unit": "°C"},
      {"measurement": "Relative activity, Cellulose", "setting": "[2]", "value": "14.3 ± 5.7", "unit": "%"},
      {"measurement": "Relative activity, Chitin", "setting": "[2]", "value": 100, "unit": "%"},
      {"measurement": "Relative activity, Chitosan", "setting": "[2]", "value": "117.1 ± 9.1", "unit": "%"},
      {"measurement": "Relative activity, Colloidal chitin", "setting": "[3]", "value": "159.9 ± 4.8", "unit": "%"},
      {"measurement": "hydrolysis products from chitin pentamers", "setting": "[4]", "value": "dimers and monomers"},
      {"measurement": "hydrolysis products from chitin trimers", "setting": "[4]", "value": "dimers and monomers"},
      {"measurement": "cleavage mechanism (exo-/endo-chitinase activity)", "setting": "[4]", "value": "exo-chitinase activity"},
      {"measurement": "growth inhibition of Septoria tritici in the MIC test", "setting": "Septoria tritici", "value": "xx"}
    ]},
    {"molecule": "Chitinase 2: chitinolytic enzyme from P. orarium, SEQ ID NO: 2, recombinant with PelB signal peptide and 6×His tag (protein, listed as Photobacterium orarium, PelB signal peptide; 6xHis tag; Chitinase 2) MATANYNPDGVYSAGEQVIYQGATYQALRSTENEAPDTYLGDAWQQVNAQNVTSSTTPTYPAYQSSAVYVGGDHVSYNSQIYKAKWWTQGEAPDATPGTGVWEWVSADNNPDPGPGPDPDPTPEPTPANGIIGQNPDGSYIMSKTYLDAREAELTSSPEFAAVLASISTRDNAVVEAVVPGLSTNPDNVKRVEALISEQKWDALFPERNVVYTYSNFLKAVAKFKGFCATYTDERAAQSDAICAKSLAVMFAHFTQETGAHNPHSPYEEWRQGLFFVREAGCSEEASSCGYNSECAASNWQTEQWPCGTNPDGSYVKYFGRGAKQLSYHYNYGPFSDFIFNDVNVLLQDPDRVADSWLNLASAVFFFVYPQPPKPSMLHVIDGTWQPTAADIAEKRVPGFGVTTMIINGGIECTLDTEKPQSVNRIKYYRGHAAALGVAIPADEQLGCAGMKAFKKTGDSTFGLYWENDWSYYPDNPGGSSFACRIESGYQTAHTTLKKGDYAKCIQKYYGVTIE", "values": [
      {"measurement": "enzyme activity (relative)", "setting": "[1]; 20% (w/v) NaCl, pH 8, 30° C.", "value": 10, "unit": "%"},
      {"measurement": "Optimum pH", "setting": "[1]; chitin powder, listed as C2", "value": 10},
      {"measurement": "Optimum salinity", "setting": "[1]; chitin powder, pH 8, 30° C.", "value": 1, "unit": "% NaCl"},
      {"measurement": "Relative activity, Cellulose", "setting": "[2]", "value": "10.0 ± 1.1", "unit": "%"},
      {"measurement": "Relative activity, Chitin", "setting": "[2]", "value": 100, "unit": "%"},
      {"measurement": "Relative activity, Chitosan", "setting": "[2]", "value": "71.4 ± 6.7", "unit": "%"},
      {"measurement": "Relative activity, Colloidal chitin", "setting": "[3]", "value": "191.4 ± 4.7", "unit": "%"},
      {"measurement": "hydrolysis products from chitin pentamers", "setting": "[4]", "value": "trimers and dimers"},
      {"measurement": "hydrolysis products from chitin trimers", "setting": "[4]", "value": "no activity"},
      {"measurement": "cleavage mechanism (exo-/endo-chitinase activity)", "setting": "[4]", "value": "endo-chitinase activity"},
      {"measurement": "growth inhibition of Septoria tritici in the MIC test", "setting": "Septoria tritici", "value": "xx"}
    ]}
  ]
}
